The sequences below were run on Escherichia coli TOP10 (assay: shrunken log2 fold change of peptide-encoding DNA abundance (4.5 h post-induction vs induction); higher = less antimicrobial activity (less host growth inhibition)). Settings: time post-induction: 4.5 h; library: site-saturation at positions 5, 18, 19, 20.
For RRIRLRPPRLPRPRPRPNWAPRP, the “shrunken log2 fold change” value was -0.00149. RRIRPRPPRLPRPRPRPRNEPRP was tested, and the “shrunken log2 fold change” value was 0.139. For RRIRRRPPRLPRPRPRPVYMPRP, the “shrunken log2 fold change” value was -0.0789. For RRIRKRPPRLPRPRPRPAKMPRP, the “shrunken log2 fold change” value was 0.376. In the case of RRIRKRPPRLPRPRPRPCHCPRP, the “shrunken log2 fold change” value is reported as -0.241. RRIRMRPPRLPRPRPRPHQFPRP was tested, and the “shrunken log2 fold change” value was -0.0236. In the case of RRIRMRPPRLPRPRPRPFKVPRP, the “shrunken log2 fold change” value is reported as -0.111. With RRIRMRPPRLPRPRPRPFEFPRP the “shrunken log2 fold change” value was -0.044. For RRIRPRPPRLPRPRPRPIPKPRP, the “shrunken log2 fold change” value was 0.28. In the case of RRIRCRPPRLPRPRPRPQQWPRP, the “shrunken log2 fold change” value is reported as -0.0268. In the case of RRIRYRPPRLPRPRPRPPLRPRP, the “shrunken log2 fold change” value is reported as -0.151. RRIRNRPPRLPRPRPRPCHHPRP was tested, and the “shrunken log2 fold change” value was -1.21. In the case of RRIRHRPPRLPRPRPRPSLIPRP, the “shrunken log2 fold change” value is reported as 0.954. In the case of RRIRMRPPRLPRPRPRPAAPPRP, the “shrunken log2 fold change” value is reported as 1.65. For RRIRERPPRLPRPRPRPHCVPRP, the “shrunken log2 fold change” value was 0.038. For RRIRERPPRLPRPRPRPRAYPRP, the “shrunken log2 fold change” value was -0.125. RRIRGRPPRLPRPRPRPTRQPRP was tested, and the “shrunken log2 fold change” value was 0.577. In the case of RRIRCRPPRLPRPRPRPENKPRP, the “shrunken log2 fold change” value is reported as -0.415. For RRIRHRPPRLPRPRPRPWHKPRP, the “shrunken log2 fold change” value was -0.113. For RRIRMRPPRLPRPRPRPITVPRP, the “shrunken log2 fold change” value was 0.0226. For RRIRWRPPRLPRPRPRPNCPPRP, the “shrunken log2 fold change” value was -0.125. For RRIRERPPRLPRPRPRPSTQPRP, the “shrunken log2 fold change” value was -0.177. In the case of RRIRIRPPRLPRPRPRPPLGPRP, the “shrunken log2 fold change” value is reported as 0.164. With RRIRTRPPRLPRPRPRPRCGPRP the “shrunken log2 fold change” value was 0.172. RRIRNRPPRLPRPRPRPTLSPRP was tested, and the “shrunken log2 fold change” value was 0.145. For RRIRPRPPRLPRPRPRPLKYPRP, the “shrunken log2 fold change” value was -0.424. With RRIRRRPPRLPRPRPRPSQYPRP the “shrunken log2 fold change” value was 0.0176. RRIRGRPPRLPRPRPRPAGCPRP was tested, and the “shrunken log2 fold change” value was 0.973. RRIRSRPPRLPRPRPRPMQAPRP was tested, and the “shrunken log2 fold change” value was 0.0325. RRIRGRPPRLPRPRPRPMPFPRP was tested, and the “shrunken log2 fold change” value was 0.118. For RRIRHRPPRLPRPRPRPNANPRP, the “shrunken log2 fold change” value was -0.801. For RRIRSRPPRLPRPRPRPATGPRP, the “shrunken log2 fold change” value was 0.156. RRIRHRPPRLPRPRPRPWNLPRP was tested, and the “shrunken log2 fold change” value was -0.278. In the case of RRIRWRPPRLPRPRPRPKKQPRP, the “shrunken log2 fold change” value is reported as 0.176. With RRIRERPPRLPRPRPRPGKFPRP the “shrunken log2 fold change” value was -0.0178. RRIRWRPPRLPRPRPRPIGKPRP was tested, and the “shrunken log2 fold change” value was -0.0958. RRIRGRPPRLPRPRPRPMVRPRP was tested, and the “shrunken log2 fold change” value was 0.03. RRIRNRPPRLPRPRPRPSYCPRP was tested, and the “shrunken log2 fold change” value was -0.267. In the case of RRIRVRPPRLPRPRPRPYIQPRP, the “shrunken log2 fold change” value is reported as -0.472. For RRIRGRPPRLPRPRPRPNTAPRP, the “shrunken log2 fold change” value was 0.543. For RRIRLRPPRLPRPRPRPNKKPRP, the “shrunken log2 fold change” value was -0.256. With RRIRFRPPRLPRPRPRPQANPRP the “shrunken log2 fold change” value was -0.0788. With RRIRSRPPRLPRPRPRPPEPPRP the “shrunken log2 fold change” value was 0.373. In the case of RRIRRRPPRLPRPRPRPSYCPRP, the “shrunken log2 fold change” value is reported as -0.0727. With RRIRCRPPRLPRPRPRPNWCPRP the “shrunken log2 fold change” value was -0.0555. With RRIRKRPPRLPRPRPRPTYKPRP the “shrunken log2 fold change” value was -0.198. With RRIRARPPRLPRPRPRPKMVPRP the “shrunken log2 fold change” value was 0.116. RRIRARPPRLPRPRPRPQRSPRP was tested, and the “shrunken log2 fold change” value was 0.17. For RRIRYRPPRLPRPRPRPIIWPRP, the “shrunken log2 fold change” value was -0.152. RRIRMRPPRLPRPRPRPQELPRP was tested, and the “shrunken log2 fold change” value was 0.0211. RRIRCRPPRLPRPRPRPWVHPRP was tested, and the “shrunken log2 fold change” value was -0.169. In the case of RRIRCRPPRLPRPRPRPITPPRP, the “shrunken log2 fold change” value is reported as -0.219. RRIRKRPPRLPRPRPRPNTRPRP was tested, and the “shrunken log2 fold change” value was -0.0607. In the case of RRIRTRPPRLPRPRPRPMFYPRP, the “shrunken log2 fold change” value is reported as -0.359. For RRIRKRPPRLPRPRPRPDNTPRP, the “shrunken log2 fold change” value was -0.0368. In the case of RRIRERPPRLPRPRPRPVTHPRP, the “shrunken log2 fold change” value is reported as -0.194. In the case of RRIRLRPPRLPRPRPRPEYFPRP, the “shrunken log2 fold change” value is reported as -0.0957. In the case of RRIRMRPPRLPRPRPRPEEIPRP, the “shrunken log2 fold change” value is reported as 0.0117. RRIRLRPPRLPRPRPRPLNEPRP was tested, and the “shrunken log2 fold change” value was -0.0224. In the case of RRIRDRPPRLPRPRPRPEIFPRP, the “shrunken log2 fold change” value is reported as -0.0297. In the case of RRIRARPPRLPRPRPRPSLIPRP, the “shrunken log2 fold change” value is reported as -0.0273. With RRIRERPPRLPRPRPRPMLPPRP the “shrunken log2 fold change” value was -0.397. RRIRGRPPRLPRPRPRPCQVPRP was tested, and the “shrunken log2 fold change” value was 0.224. For RRIRLRPPRLPRPRPRPCYSPRP, the “shrunken log2 fold change” value was -0.142. For RRIRGRPPRLPRPRPRPDFLPRP, the “shrunken log2 fold change” value was 0.318. In the case of RRIRFRPPRLPRPRPRPMYRPRP, the “shrunken log2 fold change” value is reported as -0.29. With RRIRNRPPRLPRPRPRPCTPPRP the “shrunken log2 fold change” value was -0.3. RRIRPRPPRLPRPRPRPVILPRP was tested, and the “shrunken log2 fold change” value was -0.26. RRIRPRPPRLPRPRPRPWPRPRP was tested, and the “shrunken log2 fold change” value was 0.766. With RRIRDRPPRLPRPRPRPKCIPRP the “shrunken log2 fold change” value was -0.318. RRIRWRPPRLPRPRPRPRTMPRP was tested, and the “shrunken log2 fold change” value was 0.205. For RRIRMRPPRLPRPRPRPRCTPRP, the “shrunken log2 fold change” value was 0.6. RRIRRRPPRLPRPRPRPLKSPRP was tested, and the “shrunken log2 fold change” value was -0.215. With RRIRKRPPRLPRPRPRPHWMPRP the “shrunken log2 fold change” value was 0.0937. With RRIRMRPPRLPRPRPRPTCVPRP the “shrunken log2 fold change” value was 0.424.
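Further: peptides expressed intracellularly from a pBAD plasmid library in pooled LB shake-flask culture, induced with 0.3% L-arabinose, DNA abundance read by NGS, three biological replicates, DESeq2 with apeglm shrinkage.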
